# Data: patent US20240052064A1 (Bristol-Myers Squibb, published 2024)
# B1: Mab102 (bispecific antibody, human IgG1, L234A L235A)
# heavy 1: EVQLLESGGGLVQPGGSLRLSCAASGFTFSDNAMGWVRQAPGKGLEWVSAISGPGSSTYYADSVKGRFTISRDNSKNTLYLQMNSLRAEDTAVYYCAKVLGWFDYWGQGTLVTVSSASTKGPSVFPLAPSSKSTSGGTAWLGCEVTDYFPEPVTVSWNSGALTSGVHTFPAVLESSGLYSLSSVVTVPSSSLGTQTYICNVNHKPSNTKVDKKVEPKSCDKTHTCPPCPAPEAAGGPSVFLFPPKPKDTLMISRTPEVTCVVVDVSHEDPEVKFNWYVDGVEVHNAKTKPREEQYNSTYRVVSVLTVLHQDWLNGKEYKCKVSNKALGAPIEKTISKAKGQPREPQVYVYPPSREEMTKNQVSLTCLVKGFYPSDIAVEWESNGQPENNYKTTPPVLDSDGSFALVSKLTVDKSRWQQGNVFSCSVMHEALHNHYTQKSLSLSPG
# heavy 2: EVQLLESGGGLVQPGGSLRLSCAASGFTFSDNAMGWVRQAPGKGLEWVSAISGPGSSTYYADSVKGRFTISRDNSKNTLYLQMNSLRAEDTAVYYCAKVLGWFDYWGQGTLVTVSSASTKGPSVFPLAPSSKSTSGGTAWLGCEVTDYFPEPVTVSWNSGALTSGVHTFPAVLESSGLYSLSSVVTVPSSSLGTQTYICNVNHKPSNTKVDKKVEPKSCDGGGGSGGGGSQAVVTQEPSLTVSPGGTVTLTCGSSTGAVTTSNYANWVQEKPGQAFRGLIGGTNKRAPGTPARFSGSLLGGKAALTLSGAQPEDEAEYYCALWYSNLWVFGGGTKLTVLSSASTKGPSVFPLAPSSKSTSGGTAALGCLVKDYFPEPVTVSWNSGALTSGVHTFPAVLQSSGLYSLSSVVTVPSSSLGTQTYICNVNHKPSNTKVDKKVEPKSCDKTHTCPPCPAPEAAGGPSVFLFPPKPKDTLMISRTPEVTCVVVDVSHEDPEVKFNWYVDGVEVHNAKTKPREEQYNSTYRVVSVLTVLHQDWLNGKEYKCKVSNKALGAPIEKTISKAKGQPREPQVYVLPPSREEMTKNQVSLLCLVKGFYPSDIAVEWESNGQPENNYLTWPPVLDSDGSFFLYSKLTVDKSRWQQGNVFSCSVMHEALHNHYTQKSLSLSPG
# light 1: EIVLTQSPGTLSLSPGERATLSCRASQSVSSYYLAWYQQKPGQAPRLLISGAGSRATGIPDRFSGSGSGTDFTLTISRLEPEDFAVYYCQQYGYPPDFTFGQGTKVEIKRTVAAPSVAIFPPSDERLKSGTASVVCVLNNFYPREAKVQWKVDNALQSGNSQESVTEQDSKDSTYSLSSRLTLSKADYEKHKVYACEVTHQGLSSPVTKSFNRGEC
# light 2: EVQLLESGGGLVQPGGSLRLSCAASGFTFSTYAMNWVRQAPGKGLEWVSRIRSKYNNYATYYADSVKGRFTISRDDSKNTLYLQMNSLRAEDTAVYYCVRHGNFGNSYVSWFAYWGQGTLVTVSSASVAAPSVFIFPPSDEQLKSGTASVVCLLNNFYPREAKVQWKVDNALQSGNSQESVTEQDSKDSTYSLSSTLTLSKADYEKHKVYACEVTHQGLSSPVTKSFNRGEC
# notes: also called BCMA TCE; BCMA T cell engager
# What was measured:
# [1] = target: T1, BCMA on cells (JEKO cells, plasmablasts) (human, UniProt Q02223 1-184); assay: cell-based or functional assay
# T1 sequence (looked up): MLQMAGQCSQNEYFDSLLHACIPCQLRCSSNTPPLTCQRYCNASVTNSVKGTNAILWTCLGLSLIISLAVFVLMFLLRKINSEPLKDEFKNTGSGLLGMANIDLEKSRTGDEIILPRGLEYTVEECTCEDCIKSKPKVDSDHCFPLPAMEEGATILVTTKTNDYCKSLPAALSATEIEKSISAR
# Human CD3ED, TPP401 [2] = target: T2, Human CD3ED, TPP401 (human, UniProt P07766 23-126; P04234 22-105); assay: SPR (Biacore T200), single-cycle kinetics, antibody captured on anti-human IgG, antigen injected; sensorgram of sample stored at pH 6, 40 C compared with the non-stressed standard
# T2 construct: 'CD3ED' is read here as the CD3 epsilon/delta pair; also called Antigen 2
# Procedure: (§1) SPR experiments were performed using a Biacore T200 system (GE Healthcare, Uppsala, Sweden) with analysis and sample compartment temperatures set at 25° C. and 7° C. respectively.
# (§2) Anti-Human IgG (from anti-human IgG Capture Kit) was amine coupled to the surface of a CM5 chip according to the manufacturer's instructions. Molecule bispecific antibodies diluted to 1 μg/mL in running buffer were captured on the chip surface in a 60 s injection. Following the single-cycle kinetics procedure, antigen was next injected five times (30 s per injection) at incrementally increasing concentrations at a flow rate of 30 μL/min. Antigen concentrations ranged from 0.08 to 50 nM for BCMA and between 12.7 to 1000 nM for CD3. A 300 s dissociation time was added after the last antigen injection. Following each experiment, all flow cells were regenerated using a 30 s injection of 3M MgCl₂.
# (§3) Prior to analysis, data were double referenced by first subtracting data from a reference flow cell and then subtracting a blank cycle where buffer was injected instead of antigen. The sensorgram comparison analysis was implemented using a Biacore T200 (software version 3.0). All data were normalized with respect to the response where 100% reflects the maximum binding obtained during injection and 0% reflects the baseline. Average and ±3 standard deviation (SD) sensorgrams were calculated from ten or more independent sensorgrams of each molecule's non-stressed material (standard). For quantitation of binding similarities of the stressed samples against the corresponding non-stressed standard, sample sensorgrams were co-evaluated with the sensorgrams of the standard. The degree of similarity was calculated based on how many sample data points fell inside or outside the ±3 standard deviation limits according to Equation 2, where SSQ is the sum of squares (Karlsson, R, Pol, E., and Frostell, A. (2016); Analytical Biochemistry 502, 53-63).
# Human BCMA, TPP208 [3] = target: T3, Human BCMA, TPP208 (human, UniProt Q02223 1-54, limits assumed); assay: as above
# T3 construct: also called Antigen 1
# T3 sequence (looked up): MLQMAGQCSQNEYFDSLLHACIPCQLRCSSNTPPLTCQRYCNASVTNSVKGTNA
# Procedure: as §1, §2, §3
# Human CD3ED, TPP401 [4] = target: T2, Human CD3ED, TPP401; assay: SPR (Biacore T200), single-cycle kinetics, antibody captured on anti-human IgG, antigen injected; sensorgram of sample stored at pH 6 with tert-butyl peroxide, 40 C compared with the non-stressed standard
# Procedure: as §1, §2, §3
# Human BCMA, TPP208 [5] = target: T3, Human BCMA, TPP208; assay: as above
# Procedure: as §1, §2, §3
# BCMA = target: T4, BCMA (human, UniProt Q02223 1-54, limits assumed)
# T4 construct: also called B cell maturation antigen; TNFRSF17
# T4 sequence (looked up): T3 sequence (looked up)
# [6] = target: T1, BCMA on cells (JEKO cells, plasmablasts); assay: cell-based or functional assay; remark: listed apart in the source
# Human CD3ED, TPP401 [7] = target: T2, Human CD3ED, TPP401; assay: SPR (Biacore T200), single-cycle kinetics, antibody captured on anti-human IgG, antigen injected; sensorgram of sample stored at pH 4, 40 C compared with the non-stressed standard
# Procedure: as §1, §2, §3
# Human BCMA, TPP208 [8] = target: T3, Human BCMA, TPP208; assay: as above
# Procedure: as §1, §2, §3
# Human CD3ED, TPP401 [9] = target: T2, Human CD3ED, TPP401; assay: SPR (Biacore T200), single-cycle kinetics, antibody captured on anti-human IgG, antigen injected; sensorgram of sample stored at pH 8, 40 C compared with the non-stressed standard
# Procedure: as §1, §2, §3
# Human BCMA, TPP208 [10] = target: T3, Human BCMA, TPP208; assay: as above
# Procedure: as §1, §2, §3
# [11] = target: T1, BCMA on cells (JEKO cells, plasmablasts); assay: cell-based or functional assay; remark: listed apart in the source
# T2 sequence (P07766 23-126, chain 1 of 2): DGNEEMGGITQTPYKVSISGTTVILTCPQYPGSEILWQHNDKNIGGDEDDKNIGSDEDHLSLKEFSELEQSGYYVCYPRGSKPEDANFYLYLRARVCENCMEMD
# T2 sequence (P04234 22-105, chain 2 of 2): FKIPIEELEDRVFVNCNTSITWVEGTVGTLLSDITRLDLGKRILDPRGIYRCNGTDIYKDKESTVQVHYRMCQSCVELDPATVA
binder,measurement,setting,value
B1,"EC50 PB killing (nM), AAV-1 (n = 1)",[1],0.003 nM
same,"EC50 PB killing (nM), healthy volunteers (n = 3)",[1],0.007 nM
same,pH 6 SPR % similarity-CD3,"Human CD3ED, TPP401 [2]",100%
same,pH 6 SPR % similarity-BCMA,"Human BCMA, TPP208 [3]",99.4%
same,pH 6-TBP SPR % similarity-CD3,"Human CD3ED, TPP401 [4]",72.3%
same,pH 6-TBP SPR % similarity-BCMA,"Human BCMA, TPP208 [5]",54%
same,Kd,BCMA,60 pM
same,"EC50 for JEKO cell killing (nM), T cell-mediated, annexin V, 20 h, T:E 1:2",[6],0.12 nM
same,pH 4 SPR % similarity-CD3,"Human CD3ED, TPP401 [7]",100%
same,pH 4 SPR % similarity-BCMA,"Human BCMA, TPP208 [8]",100%
same,pH 8 SPR % similarity-CD3,"Human CD3ED, TPP401 [9]",70.1%
same,pH 8 SPR % similarity-BCMA,"Human BCMA, TPP208 [10]",95.7%
same,"EC50 for BM plasmablast killing (nM), bone marrow mononuclear cells, 24 h",[11],0.00281 nM
